Data: patent US20100183640A1

Biological target: purified human fibronectin (hFn), from human plasma (human) (UniProt P02751)
Assay: cell-based or functional assay

% Inhibition of adhesion of NIH-3T3 cells to hFn-coated wells (50 ng rhUG): 54%
Percent Inhibition of cellular adhesion to fibronectin, Hela cell line (50 ng): -5%
Percent Inhibition of cellular adhesion to fibronectin, NIH-3T3 cell line (50 ng): 54%
B1: recombinant human uteroglobin (ligand)
chain: EICPSFQRVIETLLMDTPSSYEAAMELFSPDQDMREAGAQLKKLVDTLPQKPRESIIKLMEKIAQSSLCN
